ChEMBL document CHEMBL1121725, “Interaction of 1-(5-phospho-beta-D-arabinofuranosyl)-5-substituted-uracils with thymidylate synthetase: mechanism-based inhibition by 1-(5-phospho-beta-D-arabinosyl)-5-fluorouracil” (J Med Chem, 1981)

Molecular target: thymidylate synthase (Lactobacillus casei)
Test: Compound was evaluated for the inhibition of dTMP synthetase with respect to dUMP.

B1: Thymidylate synthase (Escherichia coli), C3SWJ7 (protein)
chain: MKQYLELMQKVLDEGTQKNDRTGTGTLSIFGHQMRFNLQDGFPLVTTKRCHLRSIIHELLWFLQGDTNIAYLHENNVTIWDEWADENGDLGPVYGKQWRAWPTPDGRHIDQITTVLNQLKNDPDSRRIIVSAWNVGELDKMALAPCHAFFQFYVADGKLSCQLYQRSCDVFLGLPFNIASYALLVHMMAQQCDLEVGDFVWIGGDTHLYSNHMDQTHLQLSREPRPLPKLIIKRKPESIFDYRFEDFEIEGYDPHPGIKAPVAI
  Km: 2 µM
